Test results as given in paper PMC5610937 (Journal of molecular biology, 2017).

How the values were obtained:
Fc-hROR2 protein = Fc-hROR2 protein (Homo sapiens (Human)., UniProt Q01974); test: SPR
[1] = biological target: mouse ROR2 extracellular domains displayed on HEK293F cells (Mus musculus (Mouse)., UniProt Q9Z138); test: flow cytometry on cells
[2] = biological target: human ROR1 ectopically and stably expressed on mouse pre-B cell line 63-12 (Homo sapiens (Human)., UniProt Q01973); test: flow cytometry on cells
[3] = biological target: human ROR2 on the Retrogenix HEK293 cell microarray (Homo sapiens (Human)., UniProt Q01974); test: Retrogenix cell microarray

Sequence of mouse ROR2 extracellular domains displayed on HEK293F cells (Q9Z138 34-403): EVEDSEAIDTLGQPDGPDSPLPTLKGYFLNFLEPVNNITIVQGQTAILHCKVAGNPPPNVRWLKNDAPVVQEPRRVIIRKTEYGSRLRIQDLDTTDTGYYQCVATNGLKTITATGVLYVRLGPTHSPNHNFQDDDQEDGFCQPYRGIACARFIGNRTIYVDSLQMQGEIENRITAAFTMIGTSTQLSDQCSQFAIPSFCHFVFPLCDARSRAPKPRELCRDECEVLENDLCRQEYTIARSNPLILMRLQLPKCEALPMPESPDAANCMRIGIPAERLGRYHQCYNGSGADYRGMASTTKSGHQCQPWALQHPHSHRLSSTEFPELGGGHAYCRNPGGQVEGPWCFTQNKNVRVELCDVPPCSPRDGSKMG

| Kd (Fc-hROR2 protein) | binding result [1] | binding result [2] | binding result [3] | Binder |
| --- | --- | --- | --- | --- |
| 43.3 nM | binds | no binding | – | chimeric rabbit/human anti-human ROR2 Fab ERR2-TOP35 (Fab, V domains shown) VH: QSVKESEGGLFKPMDTLTLTCTVSGFSLNTYGVSWVRQAPGNGLEWIGAVGSSGATNYASWAKSRSTITRNTNENTVTLKMTSLTAADTATYFCARDGYYSSGWGPYFSIWGPGTLVTVSS VL: SFVLTQPASVQVNLGQTVSLTCTAETLRSSYASWYQQKPGQAPVLLIYRDTSRPSGVPDRFSGSSSGNTATLTISGAQAGDEADYYCATSDGSGSRYYVFGGGTQLTVT |
| – | – | – | no binding (tested: 2 μg/mL) | XBR1-402 in chimeric rabbit/human IgG1 format (antibody, V domains shown) VH: QEQQKESGGGLFKPTDTLTLTCTASGFDISSYYMSWVRQAPGNGLEWIGAIGISGNAYYASWAKSRSTITRNTNLNTVTLKMTSLTAADTATYFCARDHPTYGMDLWGPGTLVTVSS VL: SYELTQLPSVSVSLGQTARITCEGNNIGSKAVHWYQQKPGLAPGLLIYDDDERPSGVPDRFSGSNSGDTATLTISGAQAGDEADYYCQVWDSSAYVFGGGTQLTVT |
